Source: publication PMC12021056, “MISP Suppresses Ferroptosis via MST1/2 Kinases to Facilitate YAP Activation in Non‐Small Cell Lung Cancer” (Advanced Science, 2025)

Assays:
His-MST1 (aa301-487) = target: T1, His-MST1 (aa301-487) (UniProt Q13043 301-487); assay: pull-down; 2 µg GST or GST-MISP (aa352-524) incubated with 2 µg His-MST1 (aa301-487) or His-MST2 (aa279-491) for 12 h at 4 °C; SDS-PAGE and Coomassie blue staining; settings: both partners purified
T1 construct: MST1 kinase, amino acids 301-487 (holds the C-terminal SARAH domain, aa431-487); also called SARAH domain of MST1; source: E. coli BL21, purified (Ni-NTA agarose)
T1 sequence (looked up): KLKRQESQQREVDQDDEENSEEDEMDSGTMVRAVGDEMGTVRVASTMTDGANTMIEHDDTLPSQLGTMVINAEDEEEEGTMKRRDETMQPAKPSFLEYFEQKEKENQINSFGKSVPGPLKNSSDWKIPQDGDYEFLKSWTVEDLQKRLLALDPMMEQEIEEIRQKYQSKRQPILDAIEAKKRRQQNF

His-MST2 (aa279-491) = target: T2, His-MST2 (aa279-491) (UniProt Q13188 279-491); assay: as above; settings: both partners purified
T2 construct: MST2 kinase, amino acids 279-491 (holds the C-terminal SARAH domain); also called SARAH domain of MST2; source: E. coli BL21, purified (Ni-NTA agarose)
T2 sequence (looked up): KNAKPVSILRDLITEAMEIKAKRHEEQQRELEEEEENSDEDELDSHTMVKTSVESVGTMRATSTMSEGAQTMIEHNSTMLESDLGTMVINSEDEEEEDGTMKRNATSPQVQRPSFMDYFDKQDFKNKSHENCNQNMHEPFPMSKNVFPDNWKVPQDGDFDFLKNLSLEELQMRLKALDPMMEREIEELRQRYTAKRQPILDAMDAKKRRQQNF

binding result (His-MST1 (aa301-487)): binds | binding result (His-MST2 (aa279-491)): binds
B1: GST-MISP (aa352-524) (domain or fragment, UniProt Q8IVT2 352-524, looked up)
chain: QRDIVQETQREEDHRREGLHVGRASTPDWVSEGPQPGLRRALSSDSILSPAPDARAADPAPEVRKVNRIPPDAYQPYLSPGTPQLEFSAFGAFGKPSSLSTAEAKAATSPKATMSPRHLSESSGKPLSTKQEASKPPRGCPQANRGVVRWEYFRLRPLRFRAPDEPQQAQVPH
notes: source: E. coli BL21, purified (glutathione S-transferase agarose)
